Assay results as given in the supplement of paper PMC10567573.
± gives the standard deviation.

Assay: protein stability index of a GFP-peptide fusion (GPS, HEK-293T) (PSI 1-6); higher = more stable
[1] = treatment: DMSO, c terminus: a fixed tail appended
[2] = treatment: MLN4924 1 uM, 8 h, c terminus: a fixed tail appended
[3] = treatment: DMSO, c terminus: native
[4] = treatment: MLN4924 1 uM, 8 h, c terminus: native
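Further: 24-mer peptide tiles fused after GFP, lentivirally expressed, FACS-sorted into six equal bins by GFP/DsRed ratio, decoded by Illumina sequencing, PSI is the read-weighted mean bin number.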

## HELLLGSLQQQHQADLELIESAHR [FBF1]
[1]
  protein stability index: 4.66 ± 0.24
[2]
  protein stability index: 4.35 ± 0.21

## LFVLLSVVCVLLNLAGFILGCQGA [FAM189A2]
[1]
  protein stability index: 3.15 ± 0.38
[2]
  protein stability index: 3.25 ± 0.61

## SPICLSTSLSLAQVGAKGDTANEI [SERPINB5]
[1]
  protein stability index: 4.68 ± 0.15
[2]
  protein stability index: 4.54 ± 0.21

## KDREFHELQGDFSVPDVPKSMAWC [VPS39]
[1]
  protein stability index: 3.5 ± 0.33
[2]
  protein stability index: 3.31 ± 0.15

## RRFNENAADRHINFCKEQAARISN [ZC2HC1A]
[1]
  protein stability index: 2.56 ± 0.17
[2]
  protein stability index: 2.51 ± 0.39

## ESTPVGTVVGLFNVRDRDSGRNGE [PCDHGC5]
[1]
  protein stability index: 4.92 ± 0.33
[2]
  protein stability index: 4.89 ± 0.31

## ELFSYLRNRGRFSSTTGLFYSAEI [PRKX]
[1]
  protein stability index: 2.36 ± 0.84
[2]
  protein stability index: 2.44 ± 1.3

## TELPELLKLYYRRLFPYSQYYRWL [PRIM1]
[1]
  protein stability index: 2.93 ± 0.79
[2]
  protein stability index: 2.47 ± 0.67

## LAVRSLRRVGGSRILLRMTLGREV [NLN]
[1]
  protein stability index: 2.73 ± 0.68
[2]
  protein stability index: 2.37 ± 0.55

## CGTPEYLAPEVIQSKGHGRAVDWW [PRKX]
[1]
  protein stability index: 2.72 ± 0.54
[2]
  protein stability index: 2.45 ± 0.15

## KASGRFGLLQGTSAETSGGLLICL [SEPHS2]
[1]
  protein stability index: 2.53 ± 0.83
[2]
  protein stability index: 2.41 ± 0.69

## LDGHTISDLSRSSRGELIPISPST [MYBL2]
[1]
  protein stability index: 4.14 ± 0.13
[2]
  protein stability index: 4.33 ± 0.3

## NTTVIPNGSMAMGTVPGQAPRLAV [LYSMD4]
[1]
  protein stability index: 3.69 ± 0.32
[2]
  protein stability index: 3.5 ± 0.23

## GSRCLKTFEVPEENTAETITRVLY [ZBED1]
[1]
  protein stability index: 2.66 ± 0.47
[2]
  protein stability index: 2.64 ± 0.18

## YREHKSLTGTARYMSINTHLGKEQ [CSNK1G1]
[1]
  protein stability index: 3.47 ± 0.34
[2]
  protein stability index: 3.27 ± 0.49

## EAFCHANCSGPAPAAKPDPDGGRA [P3H4]
[1]
  protein stability index: 4.82 ± 0.15
[2]
  protein stability index: 4.79 ± 0.19

## VILISRISSVGGEAMFCDFPKINH [CFHR2]
[1]
  protein stability index: 3.66 ± 1.3
[2]
  protein stability index: 2.97 ± 0.21

## GFWQLPPPATQNTFGNSTLALGPG [PLAGL1]
[1]
  protein stability index: 3.17 ± 0.15
[2]
  protein stability index: 3.29 ± 0.35

## GAVVLGAESHASKDVAIDMMDSRT [STX5]
[1]
  protein stability index: 4.67 ± 0.2
[2]
  protein stability index: 4.64 ± 0.44

## ILRFIYSGAFQWEELEEDIRKKLK [RHOBTB3]
[1]
  protein stability index: 2.25 ± 0.27
[2]
  protein stability index: 2.48 ± 0.53

## PRICQRNLMSLLMAVRPSLPESGL [FANCE]
[1]
  protein stability index: 2.4 ± 0.6
[2]
  protein stability index: 2.21 ± 0.27

## NGVRVFPPAMPPPATHLSPALAPV [TRIM9]
[1]
  protein stability index: 3.22 ± 0.28
[2]
  protein stability index: 3.34 ± 0.14

## PAFKSMEVANFYYEADCLAAAYGG [CEBPB]
[1]
  protein stability index: 2.83 ± 0.25
[2]
  protein stability index: 2.96 ± 0.13

## PQVSAHHRSQESLTSQESEDTYL [TBC1D10A]
[3]
  protein stability index: 5.4 ± 0.18
[4]
  protein stability index: 5.51 ± 0.16

## GCDRIIGSKKKFDKCMVCGGDGSG [ADAMTS4]
[1]
  protein stability index: 3.21 ± 0.34
[2]
  protein stability index: 4.053 ± 0.022

## ERCLLNNSLWKKNKTICKERLQIL [NLN]
[1]
  protein stability index: 2.31 ± 0.26
[2]
  protein stability index: 2.7 ± 0.49

## PVLAVVFIICIVIAILLYKSKPDR [PTPRD]
[1]
  protein stability index: 2.94 ± 1.7
[2]
  protein stability index: 2.87 ± 0.63

## LYVSLHRYDHGTFFPMGDEGASSQ [HDAC6]
[1]
  protein stability index: 2.17 ± 0.51
[2]
  protein stability index: 2.31 ± 0.28

## FYMEEGVPYCERDYEKMFGTKCHG [PDLIM7]
[1]
  protein stability index: 2.78 ± 0.4
[2]
  protein stability index: 3.19 ± 0.31

## EHRHLNPDTELKRYFGARAILGEQ [TCF25]
[1]
  protein stability index: 3.46 ± 0.32
[2]
  protein stability index: 3.47 ± 0.54

## HSAVLRDLRSGTLYSLTLYGLRGP [TNXB]
[1]
  protein stability index: 2.98 ± 0.63
[2]
  protein stability index: 2.68 ± 0.38

## VPSAVRCLQKRGSATSSSNTSLT [FSD1]
[3]
  protein stability index: 4.34 ± 0.13
[4]
  protein stability index: 4.43 ± 0.082

## PGDCFLLLVLLLYAPVGFCLLVLR [AUP1]
[1]
  protein stability index: 3.1 ± 0.44
[2]
  protein stability index: 3.13 ± 0.35

## VHPIIKRRQCRPEIRMWQTREKAK [PHTF1]
[1]
  protein stability index: 3.15 ± 0.21
[2]
  protein stability index: 3.32 ± 0.13

## IDALLEFDVHPNELTNGVINAAFM [SNAP91]
[1]
  protein stability index: 2.39 ± 0.38
[2]
  protein stability index: 2.32 ± 0.36

## PSTLLPTPEEQGELEPLKGNFDWE [FOXJ1]
[1]
  protein stability index: 5.17 ± 0.068
[2]
  protein stability index: 5.16 ± 0.29

## HSMRNSLESTLAETEARYSSQLAQ [KRT36]
[1]
  protein stability index: 4.53 ± 0.22
[2]
  protein stability index: 4.57 ± 0.17

## PGEGLLISWAFTDRPDLSLTVLPK [C2CD2L]
[1]
  protein stability index: 2.64 ± 0.48
[2]
  protein stability index: 2.37 ± 0.44

## SEFQAALSRKVAKLVHFLLLKYRA [MAGEA6]
[1]
  protein stability index: 2.45 ± 0.56
[2]
  protein stability index: 2.13 ± 0.29

## DGTSPLNTVERYNPQENRWHTIAP [KLHL20]
[1]
  protein stability index: 4.12 ± 0.26
[2]
  protein stability index: 4.26 ± 0.35

## GCYAYRQNPEAIAAAAMYTFLPDN [MYORG]
[1]
  protein stability index: 2.61 ± 0.34
[2]
  protein stability index: 2.46 ± 0.29

## KRSSRRVQRHNSFSPNSPQFNVSG [NECAB1]
[1]
  protein stability index: 4.12 ± 0.19
[2]
  protein stability index: 4.27 ± 0.13

## RTMRLWNIEEIDEIPLVIKYKKAV [WDR88]
[1]
  protein stability index: 2.3 ± 0.4
[2]
  protein stability index: 2.26 ± 0.31

## IRKYNYVAMDTEFPGVVARPIGEF [CNOT7]
[1]
  protein stability index: 2.21 ± 0.19
[2]
  protein stability index: 2.16 ± 0.2

## APDRLRASASCSHWRECLFYPALW [FBXO33]
[1]
  protein stability index: 2.33 ± 0.43
[2]
  protein stability index: 2.28 ± 0.26
